Earlier results as cited in PMC11264262.

How the values were obtained:
[1] = molecular target: His200 (UniProt position 200, RKGTVHDTALT)
[2] = molecular target: Glu73 (UniProt position 107, IFSNREGKLPG); conditions: folded protein

Homoprotocatechuate 2,3-dioxygenase (HPCD) (Brevibacterium fuscum (inferred; organism not stated in the article))
pKa [1]: ca. 7.65

Barnase (Bacillus amyloliquefaciens (inferred; organism not stated in the article))
pKa [2]: 2.1
